This test concerns the target Met (hepatocyte growth factor receptor, c-Met) on Hep3B cells (human) (UniProt P08581). The experiment in a line: flow cytometry saturation binding on Hep3B (cytochalasin D pre-treated), specific binding after subtraction of binding in saturating HGF; 0.015 wt % MC40 (~6 peptides/particle).

Where no end group is shown, it is not given here.

Sequence of UniProt P08581 (P08581 25-1390): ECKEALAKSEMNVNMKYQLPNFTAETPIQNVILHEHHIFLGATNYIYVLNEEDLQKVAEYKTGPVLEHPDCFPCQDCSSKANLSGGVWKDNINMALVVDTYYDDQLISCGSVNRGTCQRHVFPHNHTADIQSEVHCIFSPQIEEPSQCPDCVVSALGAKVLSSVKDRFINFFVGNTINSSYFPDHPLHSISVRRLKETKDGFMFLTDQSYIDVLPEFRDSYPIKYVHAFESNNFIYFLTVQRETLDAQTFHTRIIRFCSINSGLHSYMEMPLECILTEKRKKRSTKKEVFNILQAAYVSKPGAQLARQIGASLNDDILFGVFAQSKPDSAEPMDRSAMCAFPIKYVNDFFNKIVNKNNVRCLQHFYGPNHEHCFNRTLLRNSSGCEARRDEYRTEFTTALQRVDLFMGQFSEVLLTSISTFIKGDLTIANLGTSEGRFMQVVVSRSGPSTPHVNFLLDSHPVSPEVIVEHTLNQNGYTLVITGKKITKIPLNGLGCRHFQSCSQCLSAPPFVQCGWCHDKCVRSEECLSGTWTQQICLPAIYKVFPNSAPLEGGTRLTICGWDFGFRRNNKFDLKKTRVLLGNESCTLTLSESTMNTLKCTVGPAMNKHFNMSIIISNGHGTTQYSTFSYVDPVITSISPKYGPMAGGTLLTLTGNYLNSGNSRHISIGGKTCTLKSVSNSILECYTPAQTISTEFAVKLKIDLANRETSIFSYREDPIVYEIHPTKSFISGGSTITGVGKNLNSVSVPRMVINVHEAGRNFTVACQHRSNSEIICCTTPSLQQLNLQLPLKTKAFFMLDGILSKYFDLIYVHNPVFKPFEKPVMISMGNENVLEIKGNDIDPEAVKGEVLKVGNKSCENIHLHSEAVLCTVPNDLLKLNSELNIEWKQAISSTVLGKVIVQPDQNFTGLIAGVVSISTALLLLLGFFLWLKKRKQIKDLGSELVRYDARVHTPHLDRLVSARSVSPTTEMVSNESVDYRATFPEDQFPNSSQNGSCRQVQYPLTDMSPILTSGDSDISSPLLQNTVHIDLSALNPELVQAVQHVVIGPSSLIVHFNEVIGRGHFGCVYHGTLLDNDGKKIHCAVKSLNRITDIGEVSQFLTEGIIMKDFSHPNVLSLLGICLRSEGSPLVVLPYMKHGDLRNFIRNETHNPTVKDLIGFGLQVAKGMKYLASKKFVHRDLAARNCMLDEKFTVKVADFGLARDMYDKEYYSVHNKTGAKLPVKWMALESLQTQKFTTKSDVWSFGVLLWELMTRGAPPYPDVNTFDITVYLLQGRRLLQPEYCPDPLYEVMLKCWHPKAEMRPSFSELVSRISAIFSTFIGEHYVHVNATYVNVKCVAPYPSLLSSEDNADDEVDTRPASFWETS

B1: MC40-targeted protocells (mesoporous silica nanoparticle-supported lipid bilayers displaying the MC40 targeting peptide) (peptide, not shown: small tags and cut ends)
peptide: ASVHFPPC
modifications: also: C-terminal Cys conjugated via crosslinker to DOPE in the lipid bilayer of a mesoporous silica protocell
Take B1: the Kd was 1.05 nM.

The values are drawn from US20140079774A1.
